Publication PMC11033958

How the values were obtained:
[1] = target: ACKR3_RlucII (N-terminally FLAG-tagged human ACKR3, residues 2–362, with a C-terminal fusion of Renilla luciferase II) (human) (UniProt P25106)
[2] = target: purified ACKR3:CXCL12_(LRHQ) complex, ACKR3 phosphorylated in vitro by GRK2 (UniProt P25106); experiment: pull-down; 1.1 µM purified ACKR3:LRHQ complex phosphorylated by 1.1 µM GRK2 or GRK5 (1 mM ATP, 20 min, room temperature), 2.2 µM purified β-arrestin1 or 2 added for 40 min; captured on M2 anti-FLAG resin at 4°C, washed in 50 mM HEPES pH 7.5, 150 mM NaCl, LMNG/CHS, eluted with 3×FLAG peptide; SDS-PAGE band densities, arrestin as percent of ACKR3
[3] = target: purified ACKR3:CXCL12_(LRHQ) complex, ACKR3 phosphorylated in vitro by GRK5 (UniProt P25106); experiment: as above

Chain of CXCL12 (P48061 22-93): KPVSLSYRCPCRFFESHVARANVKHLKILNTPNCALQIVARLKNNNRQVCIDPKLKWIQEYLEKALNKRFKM

CXCL12 removed from the medium (25 nM CXCL12, 16 hours at 37°C) by WT HEK293A cells expressing ACKR3 RlucII, remaining chemokine by ELISA, against cells with empty vector [1] | percent of the receptor complexed with β-arrestin [2] | percent of the receptor complexed with β-arrestin [3] | Substance
64% |  |  | CXCL12 (from UniProt P48061 22-93) (ligand)
 | 14% | 73% | bovine β-arrestin2 (1–393) (from UniProt P32120 1-393) (domain or fragment)
 |  | 49% | bovine β-arrestin1 (from UniProt P17870 1-418) (natural protein)
